Data reported in patent US20150233949.

B1: human SIRT3-HA (protein)
chain: MAFWGWRAAAALRLWGRVVERVEAGGGVGPFQACGCRLVLGGRDDVSAGLRGSHGARGEPLDPARPLQRPPRPEVPRAFRRQPRAAAPSFFFSSIKGGRRSISFSVGASSVVGSGGSSDKGKLSLQDVAELIRARACQRVVVMVGAGISTPSGIPDFRSPGSGLYSNLQQYDLPYPEAIFELPFFFHNPKPFFTLAKELYPGNYKPNVTHYFLRLLHDKGLLLRLYTQNIDGLERVSGIPASKLVEAHGTFASATCTVCQRPFPGEDIRADVMADRVPRCPVCTGVVKPDIVFFGEPLPQRFLLHVVDFPMADLLLILGTSLEVEPFASLTEAVRSSVPRLLINRDLVGPLAWHPRSRDVAQLGDVVHGVESLVELLGWTEEMRDLVQRETGKLDGPDK
B2: SIRT3 (protein)
chain: B1 chain

Assays:
[1] = molecular target: mouse cytochrome c with a C-terminal Flag tag
Sequence of mouse cytochrome c with a C-terminal Flag tag (chain, as listed by the source): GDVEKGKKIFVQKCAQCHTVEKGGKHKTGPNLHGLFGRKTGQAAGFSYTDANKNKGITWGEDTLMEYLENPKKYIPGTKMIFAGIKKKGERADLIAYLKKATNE

| Protein | acetylation of residues K40 and K74 of cytochrome c (mass spectrometry) [1] | deacetylation assay (Western blot) (endogenous cytochrome c) |
| --- | --- | --- |
| B1 | when hSIRT3 was cotransfected with cytochrome c, acetylation of residues K40 and K74 of cytochrome c was no longer detected | – |
| B2 | – | SIRT3 can deacetylate endogenous cytochrome c |
